The nature of the series: Aqueous dispersibility of the peptide-lipid conjugate. The format is physicochemical.

For the substance “(Dipalmitoyl)lysine-KSS-(SG)5-ApoEdp [ApoEdp-SG-lipid]”, the Aqueous dispersibility entry is given as “excellent aqueous dispersibility”.

The values are drawn from PMC9891163 (Drug Delivery, 2023).
